# Laboratory results from patent publication US20100137420A1 (Johns Hopkins, published 2010).
# B1: full-length cystatin C (13.4 kD peak) in human cerebrospinal fluid (other)
# chain: SSPGKPPRLVGGPMDASVEEEGVRRALDFAVGEYNKASNDMYHSRALQVVRARKQIVAGVNYFLDVELGRTTCTKTQPNLDNCPFHDQPHLKRKAFCSFQIYAVPWQGTMTLSKSTCQDA
# notes: also called biomarker J
# B2: C-terminal cleavage product of cystatin C lacking the last 8 amino acids (12.5 kD peak) in human cerebrospinal fluid (other)
# chain: SSPGKPPRLVGGPMDASVEEEGVRRALDFAVGEYNKASNDMYHSRALQVVRARKQIVAGVNYFLDVELGRTTCTKTQPNLDNCPFHDQPHLKRKAFCSFQIYAVPWQGTMTL
# notes: Endogenous fragment in CSF of MS/CIS patients; also called biomarker A
# Target: T1, protein A beads (UniProt P38507 37-477)
# T1 construct: Used alone as a control in the immunodepletion; also called protein A beads alone
# Experiment: CSF incubated with protein A beads alone, SELDI-TOF read-out
# Description: 20 μl of rabbit anti-human cystatin C or rabbit anti-fusin antisera (DakoCytomation, Carpinteria, Calif.) was bound to 10 μl of protein A beads equilibrated in PBS, pH 7.4, by rocking at room temperature for 1 hr. 10 μl of equilibrated protein A beads alone were used as another control. Each sample was washed three times with PBS pH=7.4. […] 30 μl of this CSF was added to each of the above sample and rocked for 1 hr at room temperature. 15 μl of the supernatant was applied to CM-10 arrays and analyzed as described above.
row,Binder,binding result
1,B1,no binding
2,B2,no binding
